# Laboratory results as given in US12059562B2, “Systems for electrical stimulation” (priority 2018, dated 2024).
# System: Micrococcus lysodeikticus cells
# Test: Lysozyme enzyme activity assay
# Assay type: biochemical
# Settings: micropost tips 80% lysozyme and 20% PEO 200k versus uncompressed powder
# Protocol: To measure the activity of lysozyme, the assay provided by Sigma Aldrich was used which measures the amount of lysed Micrococcus lysodeikticus cells. Briefly, a 200 unit/mL Lysozyme solution in 50 mM Potassium Phosphate Buffer was added to a 0.015% [w/v] Micrococcus lysodeikticus cell suspension in the same buffer. The decrease was recorded in A450 over 5 minutes. Nine micropost tips were fabricated from 80% lysozyme and 20% PEO 200k and dissolved sets of three micropost tips together. Triplicate assays were performed on each dissolved solution for a total of nine tests and the results were compared to the results of a solution made with lysozyme that was not compressed into a micropost tip.
substance,measurement,value
lysozyme,enzymatic activity after the manufacturing process,maintain their activity
